Data from patent US8835136B2, “Engineered amine dehydrogenases and methods of use thereof” (Georgia Tech Research Corporation, priority 2012, dated 2014).
Several values for one entry are separate records, joined by “and”; a condition that tells them apart may be missing. Identical values can stand only once.

How the values were obtained:
[1] = T50 after 30 min (T50^30) of C1-AmDH; type: physicochemical
Experimental: The T50 (after 30 min—T50^30) was also determined for the C1-AmDH. The T50^30 value was determined to be dependent on the buffer, in PBS, the enzyme was staple for 30 min at 50 C, at 60 C an beyond the enzyme deactivated within the timescale of the experiment. In the presence of 4M ammonium formate buffer we found the T50^30 value was determined to be at 70 C.

[2] = C1-AmDH kinetic values; type: biochemical; conditions: 60° C.
Experimental: (§1) The values for acetophenone, pFPA; NADH and NH3 were determined and are summarized in Table XX, all measured at 60° C.

[3] = C1-AmDH amine activity measured photometrically; type: biochemical
Experimental: Activities were also measured photometrically with 100 mM (+/−) methylhenzylamine (0.58 U/mg) as well as 100 mM (R)-methylbenzylamine. (0.98 U/mg), 50 mM (R,S)-adamanylethlamine (0.04 U/mg) and determined the enantioselectivity for this enzyme to be (R).

[4] = Substrate conversion using C1-AmDH and cb-FDH, chiral GC; type: biochemical
Experimental: Product formation was characterized for two substrates. The test assay utilized the C1-AmDH in 24 h conversion at 40° C. with cofactor regeneration in a biphasic solvent system with heptane as the organic layer and 5 M ammonium formate as the aqueous layer. Conversions were also carried out at 50° C., which is the upper limit for the cofactor regeneration enzyme FDH.
This is not a quantitative evaluation, since amines are more water soluble than their ketone counterparts and only the organic layer was used for chiral gas chromatography (GC). The peaks were compared to the corresponding standard amines and both determined to be R-specific (FIGS. 24A and 24B).

[5] = Temperature vs activity profile for C1-AmDH; type: biochemical
Experimental: The temperature activity profile was determined over a wide range until the limits of the instrument were reached. […] In contrast it is barely active between 20-30° C., so all measurements for activity were determined routinely at 60° C. Product conversions were done at 40° C. and 50° C., due to the temperature limits for regeneration enzyme, FDH. Temperature activity profiles were determined for pFPA and acetophenone (FIGS. 22A and 22B).

[6] = C1-AmDH amination at 60° C. in 4 M ammonium formate buffer; type: biochemical
Experimental: (§2) All ketone substrates for the amination direction were measured at 20 mM and dissolved at 60° C. in 4 M ammonium formate buffer. Enzyme specificity was measured at 60° C. for 5 min. with NADH as the cofactor at 340 nm.
as §1

[7] = as above; type: biochemical; conditions: 20 mM
Experimental: as §2

B1: C1-AmDH: chimeric AmDH: F-AmDH substrate binding domain with L-AmDH NAD-binding domain, SEQ ID NO:20 (protein)
chain: SLVEKTSIIKDFTLFEKMSEHEQVVFCNDPATGLRAIIAIHDTTLGPALGGCRMQPYNSVEEALEDALRLSKGMTYSCAASDVDFGGGKAVIIGDPQKDKSPELFRAFGQFVDSLGGRFYTGTDMGTNMEDFIHAMKETNCIVGVPEAYGSSGNPSPATAYGVYRGMKAAAKEAFGSDSLEGKVVAVQGVGNVAYHLCRHLHEEGAKLIVTDINKEAVARAVEEFGAKAVDPNDIYGVECDIFAPCALGGIINDQTIPQLKAKVIAGSALNQLKEPRHGDMIHEMGIVYAPDYVINAGGCINVADELYGYNRERAMKKIEQIYDNIEKVFAIAKRDNIPTYVAADRMAEERIETMRKARSQFLQNGHHILSRRRAR
T50^30 value ([1]; 4M ammonium formate buffer, 30 min): 70 C
temperature at which stable for 30 min ([1]; in PBS): 50 C
kcat, NADH [2]: 0.92 s⁻¹
kcat, NH3 [2]: 1.09 s⁻¹
Km ([2]; read-out: KM, NADH): 40 µM
enantioselectivity [3]: (R)
activity, (R,S)-adamanylethlamine ([3]; 50 mM): 0.04 U/mg
activity, (+/−) methylhenzylamine ([3]; 100 mM): 0.58 U/mg
activity, (R)-methylbenzylamine ([3]; 100 mM): 0.98 U/mg
product formation from methylcyclohexanone ([4]; 24 h, 40° C., heptane / 5 M ammonium formate): no product
enantiospecificity of product amines ([4]; methylbenzylamine and p-fluorophenylproplyamin, chiral GC, organic layer): R-specific
temperature activity profile [5]: did not show any decline of activity up to 80 °C
kcat, Acetophenone [6]: 0.24 s⁻¹
kcat, pFPA [6]: 1.24 s^−1
Acetophenone, U/mg ([6]; 20 mM, 4 M ammonium formate): 0.3 U/mg and 0.3019 U/mg
Acetophenone, U/ml ([6]; 20 mM, 4 M ammonium formate): 1.63 U/ml
pFPA, U/mg ([6]; 20 mM, 4 M ammonium formate): 1.7 U/mg and 1.725 U/mg
pFPA, U/ml ([6]; 20 mM, 4 M ammonium formate): 13.8 U/ml
Km ([6]; read-out: KM, Acetophenone): 5200 µM
Km ([6]; read-out: KM, pFPA): 1100 µM
1,3-phenylbutanedione, U/mg [7]: 0.06 U/mg
1,3-phenylbutanedione, U/ml [7]: 0.3 U/ml
3-methyl-1-phenylbutanone, U/mg [7]: 0.03 U/mg
3-methyl-1-phenylbutanone, U/ml [7]: 0.16 U/ml
3-oxo-phenylbutyricacid ethylester, U/mg [7]: 0 U/mg
3-oxo-phenylbutyricacid ethylester, U/ml [7]: 0 U/ml
Adamantylmethylketone, U/mg [7]: 0.07 U/mg
Adamantylmethylketone, U/ml [7]: 0 U/ml
Benzophenone, U/mg [7]: 0 U/mg
Benzophenone, U/ml [7]: 0 U/ml
a-tetralone, U/mg [7]: 0.1 U/mg and 0.1074 U/mg
a-tetralone, U/ml [7]: 0.58 U/ml
b-tetralone, U/mg [7]: 0 U/mg
b-tetralone, U/ml [7]: 0 U/ml
dibenzylketone, U/ml [7]: 1.39 U/ml
pinacolone, U/mg [7]: 0.1333 U/mg
pinacolone, U/ml [7]: 0.72 U/ml
